Measured values: the DeepSol protein solubility set

Experiment: soluble on expression in E. coli; label from the status in PepcDB or PDB records

Sequence | soluble on expression in E. coli
MGSDKIHHHHHHAPGQTAQPGRPPTQPQGWSMTVGLAPVYGMAWQGSKDTALSIFPDLRVNYKDALFLSVPEGLGWNAVNANGWKAGPLLKARFGRNEDDGGSPFQIAGGSDALRGMGDIGIAGEAGAFVEKRFGTRQQWRARAEVRQGFGGHEGIVGDISLNWSGRTGRTILSAGPRATFASREYMQTYFGVDAVQASRTGLAASRLGGGLVSYGLGASIVQPLDRRRAVTVFGGADRLGGEPAGSSLIRERGQRTQFVVGVGYGFRFGL | not soluble
MSPIMARKPQIQAEQLAQKFVEKPEEQKDKQAVQKGQQLEGAKRWVADSELREQPVNSMQQVEHGPKAVILADDACWQTQRRVPAEIQLPQVGKISIPELSEKEIQRTIVAQPASYHKVQWNEFPEEPKYEIGAVPKTKTQDWVPVNNEQNELQRSIYKPARMSAVWPPPQDELVKDGHSPLVVKANEDTAWIQQDQNGVLKQAVWGKTSRINRVWPPPENESTLSDFGPQHMPVVQWPPPEAEAHEREQVEVLQKHIPTKKMERQWPPPPPQYQVVESSGEIETRYNPAEVDQQQQAVNSLRMGHIQA | not soluble
MEAWKKKKGLFKGARYQCTLEPIEREVLGNLAANISEVLISRAQSAPKDELAELTGMGGGHTEAPEDPGLARLLPDFEMQGDEEFDGDNSLLRSLHENDITRAKLANLQTIGQALGPDGSVFVTVTEEEAQAWVAGLNDIRLYLASSEVQDTEDRDALVEWLAFAQESLLTAMMGSLD | not soluble
MGSDKIHHHHHHMMKYIFRTFSCGSGDCIFLILKSGDYTLNLMIDCGKYTEEIDEYVRNSLKNKIDYLIVTHIDNDHINGLIKMLTQNPDLIIEHIIYNCYQRVINNEQPWTEQMKANVDRLYDQLPIVIDMLSQNVNEEKALTLAECILRKEEWRRAWQREYITDESPAIQLANNMGRIIFLSPSQVALDRLDVKYRKLFWQQLYKQKTEDYDGEETIYEALMRIAQLEEGEETKDENVNDDTINEQILKRYASRPLSKMDDNNIASIAFIWEYQGHRILLMGDADPEQVSNAIEKVYKDETKPVIFDLIKVSHHGSAHSTSCGLMDVIDSERFFFTGGGKERPSLQTLGRIIIRPLPNGIAYRDIRYNRPNEILNKLANLSVDEKGSLHIRVNHNENGYEVSC | not soluble
SNGRADFREPNAQVSRPIPDIGGGYIPTEEEWRLFAECHEECFWFRSVPLAATSMLITQGLISKGILSSHPKYGSIPKLIFACIVGYFAGKLSYVKTCQEKFKKLENSPLGEALRSGELRRSLPPGHYTQKPKYDSNVSGQSSFGTSPAADNIEKETLPRYEPIPFSASMNESTPTGITDHIAQGPDPNLEDSPKRKSVTYEELRNKNRESYGVTLSHKTDPSVRPMQERGPQKEVKVNKYGDTWDE | soluble
MTGSQFPREELFAPGHRGCAGCGAAIVARLALKAAGKNTIVANATGCLEVMTTPYPETAWRVPWIHVAFENAAAVASGIEGAVVALKRKKGKYGEEKVNVIAFGGDGGTADIGFQALSGAMERGHDMVYIMYDNEAYMNTGVQRSGSTPFMASTTTSPAGSHIRGENRPKKDMPMIMAAHGIPYIATASISYPEDFMNKVKKACEVNGPAFIQVLQPCTTGWGYPAENTVEMGRLAVETGVWPLFEIENGEFKLNYKPLKRKPIEEYLKVQKRYRHLKPEDISVIQETIDMKCDEYGL | not soluble
MGSDKIHHHHHHMQIKEFLISRRSEVVNNFYDNYYTQTDEYKLRLSAGEDEQSIRSLSTASCGMIIDVITGVKERDFENIGKRRFNDKTDIRKIHQHMSEIDKFIINSLLKWKETEDVFYTDADIIQFMLEIKDTLASIQQQLLEGFMQENRNQVMAQRKEIIQLSTRIIPITDSIGVLPIVGSLDDDRGYFMKEKAIESADKLNLDFIVIDFSSAVLKDDFATKHMEDMIQSFKLIGLIPILSGMQPSFAQRTIQVGSNISKLQSFGSLEQALTNLGL | not soluble
MTKISERNIKVARKNVCKNIQRLNKKLSNKIKNEEAALPDIIAGTHGTPIEKLLTLYKLSDPIFTAIRPFTACRYGCSACCHYKVDLLPIEAELIAISLGQAPLPLPTTFQNGHGKRCPFLSKNGQCNIYSIRPMACRRHFMFTNSDYWCNPVHSEDIKIKMLGFSGIIEAYINIANQDGRYSPENIRDIRDYFTAGIDADVNARELDSELEHHHHHH | not soluble
MAELNTHVNVKEKIYAVRSVVPNKSNNEIVLVLQQFDFNVDKAVQAFVDGSAIQVLKEWNMTGKKNNKRKRSKSKQHQGNKDAKDKVERPEAGPLQPQPPQIQNGPMNGCEKDSSSTDSANEKPALIPREKKISILEEPSKALRGVTGPNIEKSVKDLQRCTVSLTRYRVMIKEEVDSSVKKIKAAFAELHNCIIDKEVSLMAEMDKVKEEAMEILTARQKKAEELKRLTDLASQMAEMQLAELRAEIKHFVSERKYDEELGKAARFSCDIEQLKAQIMLCGEITHPKNNYSSRTPCSSLLPLLNAHAATSGKQSNFSRKSSTHNKPSEGKAANPKMVSSLPSTADPSHQTMPANKQNGSSNQRRRFNPQYHNNRLNGPAKSQGSGNEAEPLGKGNSRHEHRRQPHNGFRPKNKGGAKNQEASLGMKTPEAPAHSEKPRRRQHAADTSEARPFRGSVGRVSQCNLCPTRIEVSTDAAVLSVPAVTLVA | soluble
MGSDKIHHHHHHMRNAVIFTGIPMQYPLELTFKFWALAPQISVIDAQGNLVFYVKQKLFKLKEAITIFADVERTRPLYYIKADRIIDFSARYEFTDSNGTNIGAVKRRGLKSLWRARYDIFDGDTTTLNIQEKNPWVKIADALFAEIPIVGIFTGYVFNPVYLVSRSDGTVVMRLEKIPSFLSRKFTIKQVDQISDREEQQVLLSLMMMLLLERNRG | not soluble
MRDAALRYPNILFDLDGTLTDPREGITRSVQFALARLGIDEPDLARLEHFIGPPLLQCFMQTYGFDEARAWEAVNHYRERFRVTGLYENRVFDGIPELLEALVGRGHTLYVATSKPGVFAREIARHFAFDRHFKAIYGSELDGTRTHKEELIRHLLDSEGLAAEHCLMIGDRMHDLLGASRNGVACIGVGYGFGSEDELRAHQPTHYCADLAALRQVLESH | not soluble
RSEMHEECSPDFTAQFHLAAEHTAHIFQHLPETEPDDFQTALDTLRGELDTLRTHSSGTQSHILLQQLQLIARQLEPYYRAYRQIPHRQPQNAA | not soluble
MSLTDDRYTVISADCHAGADLLDYRPYLAKRHHDAFDAWAATYVNPYEDLLADTADRNWNSERRLAELAADGIVAEVVFPNTIPPFFPSASLMAPAPTAAEFEQRWAGLRAHNRWLADFCAAAPGRRAGVFQILLNDVEEAVKEISWAAGAGLRGGLLLPGTPPGSGLPELYSKAYDPIWAVCEELDVPVNHHAGSASPPLGDEPAARAVFMVETTWFSHRALWHLVFGGAFRRHPGLRLVLTEQGSGWIPGVLDMLDYYHGRLVAAGPKSATAEAKFGAGLDRAMGKGPSEVWRDNCFVGASFMRPHEVPLRDRIGLDKIMWGSDYPHDEGTYPYSREGLRIAYAGLPRTEIAAMAGGNAARVYGFDLSEGHHHHHH | soluble
MSLINEATLAESIRRLRQGERATLAQAMTLVESRHPRHQALSTQLLDAIMPYCGNTLRLGVTGTPGAGKSTFLEAFGMLLIREGLKVAVIAVDPSSPVTGGSILGDKTRMNDLARAEAAFIRPVPSSGHLGGASQRARELMLLCEAAGYDVVIVETVGVGQSETEVARMVDCFISLQIAGGGDDLQGIKKGLMEVADLIVINKDDGDNHTNVAIARHMYESALHILRRKYDEWQPRVLTCSALEKRGIDEIWHAIIDFKTALTASGRLQQVRQQQSVEWLRKQTEEEVLNHLFANEDFDRYYRQTLLAVKNNTLSPRTGLRQLSEFIQTQYFDEGHHHHHH | soluble
MSLNDGRLEIFQEGKPGRRIDEDQVFAAVLDALTKPAEQRTVTVAFREIPPPITAANLDQLGITTLIGVGRSDFTGSAAYRVTNIQAGMRLLHGVLIAPGEEFSFNQTIGRIDRSNGFVEGYAIIQNRTQLEWGGGICQDSTTMFRAAFWAGLPITERWGHSFYISWYDRYAFGPYGDGPGMDATIFTGGPDLKFLNDTGGWLLIQTLVDTHRHLAEVRLYGPDTGRKVLLEGPIITNRTEGHHHHHH | not soluble
MSLSTSPKPSPIPSPVLGQKPNASQSLLAWCREVTKNYRGVKITNFTTSWRNGLSFCAILHHFRPDLIDYKSLNPQDIKENNKKAYDGFASIGISRLLEPSDMVLLAIPDKLTVMTYLYQIRAHFSGQELNVVQIEENSSKSTYKVGNYETDTNSSVDQEKFYAELSDLKREGHHHHHH | soluble
MGSDKIHHHHHHVEFIVGGATGEFYFLEMNTRLQVEHPVTEMITGLDLVEQMIRVAYGEKLKITQDDVKLQGWSMEARVYAEDPFRNFLPSTGRLTRYQPPAESQHVRVDTGVYEGGEISMFYDPMIAKLITYGPTRETAIAHMRQALDEYHIRGLSHNIPFLASLFSKERFVKGNLTTNFIAEEYPNGFTSSDLPSDDPTTLIAVAAAMKRRIVERNIQISGQFPGHEMKAPTEWTVLIGGTYHEVDVHPAPGGYAVVVEGEAVEVKTDWQIGDPLIRAKVDDRMVCVQVDRTGVSFRLSHSGVQAEVWVLTRPTAKLHKLMPFKAPPDMSKYLLSPMPGLLAKLLVEEGQEVKAGEPLAVVEAMKMENILKAERDAKIAKVHAKSGDSLAVDQKIIEFAS | not soluble
MPRLILASTSPWRRALLEKLTIPFECAAPDVDETPMPGEAPRQLVLRLAQAKAQSLAARFPNHLIIGSDQICVLDGEITGKPLTEEKARQQLAKASGNIVTFYTGLALYNSASGHLQTEVEPFDVHFRHLSEAEIDDYVRKEHPLHCAGSFKSEGLGIALFERLEGRDPNTLIGLPLIALCQMLRREGFNPLQQ | not soluble
MGHHHHHHSHMPKGIALALGLNAVDPKHYGGWAGKLNACEADAEDMAAIAAERGFAVTTLMTKAATRAKVIDAIGKAAKALGKGDIFMLSYSGHGGQVPDTSNDEPDGVDETWCLFDGELIDDELYALLGKFAAGVRVLVFSDSCHSGTVVKMAYYNGTTAARSAGPDEGEIRYRAMPQSVAMRTYRANREFYDTIQQKTKKVDLADVKASILLISGCQDNQLSQDGAFNGAFTGQLLRVWKNGLYKGSYRSFHKAIVRRMPPDQTPNFFTAGTPDPAFLKQRPFTV | soluble
MGSDKIHHHHHHMYIGCNWSKALKFLLEKDEVKIDYIKAGAYGDFENEFSTMRSMKPILIHGLGKFERTGMKDINLVDFDRANSIIKRCSSPHFGIHLEIKNSDMYEGMRDENIYEYMCKQIQTFKKNIEVPLLLENVPDSPIEHTVFDCYPYFQPKKLTKLFLDNNVDFLLDLTHAKITSKYHKIDVHEYLNGLPLERVREIHVNGSGYDEEGFPMDTHSSMEKEDYDLLRWVLTYSKPYVVTLEYAGTKKEKEADIIASLKTQLREIQNIIISR | not soluble
MGHHHHHHSHMEHPLEMPICAFQLPDLTVYNEDFRSFIERDLIEQSMLVALEQAGRLNWWVSVDPTSQRLLPLATTGDGNCLLHAASLGMWGFHDRDLMLRKALYALMEKGVEKEALKRRWRWQQTQQNKESGLVYTEDEWQKEWNELIKLASSEPRMHLGTNGANCGGVESSEEPVYESLEEFHVFVLAHVLRRPIVVVADTMLRDSGGEAFAPIPFGGIYLPLEVPASQCHRSPLVLAYDQAHFSALVSMEQKENTKEQAVIPLTDSEYKLLPLHFAVDPGKGWEWGKDDSDNVRLASVILSLEVKLHLLHSYMNVKWIPLSS | soluble
